Where no end group is shown, it is not given here.

For assay [1], the target named is T1, proteolytically cleaved PTPµ extracellular fragment in tumors of human LN-229 glioma cells (human, UniProt P28827 21-477, limits assumed).
T1 construct: The target is endogenous material deposited in tumor tissue, not a purified protein; also called proteolyzed extracellular fragment of PTPµ; PTPµ fragment
T1 sequence: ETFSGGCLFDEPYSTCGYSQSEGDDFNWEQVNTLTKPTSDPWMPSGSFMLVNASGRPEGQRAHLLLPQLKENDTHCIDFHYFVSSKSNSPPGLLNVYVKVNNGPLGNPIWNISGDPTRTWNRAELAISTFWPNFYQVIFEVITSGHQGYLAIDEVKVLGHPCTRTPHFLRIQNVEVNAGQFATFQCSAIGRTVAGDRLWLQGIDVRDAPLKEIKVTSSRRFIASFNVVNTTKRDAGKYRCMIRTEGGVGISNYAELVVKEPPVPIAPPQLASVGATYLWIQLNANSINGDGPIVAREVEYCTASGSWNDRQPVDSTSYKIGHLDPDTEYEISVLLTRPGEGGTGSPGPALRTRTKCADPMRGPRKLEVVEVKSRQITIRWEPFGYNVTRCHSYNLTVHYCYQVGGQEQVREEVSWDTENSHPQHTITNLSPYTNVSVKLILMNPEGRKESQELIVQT
Put plainly: fluorescent probe labeling of fixed LN-229-GFP flank tumor sections. An excerpt:
The sections were rinsed with phosphate-buffered saline, coverslipped with Citifluor Antifadent Mounting Medium (Electron Microscopy Sciences), and imaged immediately at ×20 magnification on a Leica DMI 6000 B inverted microscope (Leica Microsystems GmbH, Wetzlar, Germany) using a Retiga EXi camera (QImaging, Surrey, BC) and Metamorph software (MolecularDevices, Downington, Pa.). Images were acquired across the entire tissue using bright-field and fluorescence optics for fluorescein (GFP) and Texas Red (probe). The resultant images were tiled and flattened to form a single composite image using Metamorph software.
Zoomed MR and corresponding heat map images for the tumor are shown (FIG. 15A). […] The corresponding flank tumor sections were incubated with SBK2-Texas Red or scrambled Texas Red probes. SBK2-Texas Red labeled the entire tumor with greatest intensity in the tumor center (FIG. 15B). This pattern is similar to that observed in the MR images following labeling with the SBK2-Tris-(Gd-DOTA)₃ probe. […] Anti-human vimentin antibody was used to label all the human cells in the mouse flank. […] Similar gradients of PTPμ extracellular fragment, as detected by the SBK2 probe, have been observed previously.

The target in assay [2] is T1, proteolytically cleaved PTPµ …. Put plainly: in vivo labeling of glioma intracranial tumors, Cy5 cryo-imaging.

B1: scrambled Texas Red probe (peptide)
peptide: GFTQPETGTDNDLWSVDNEK
modifications: not fully specified (N-terminus); also: Texas Red label, site not given here
For the molecule B1, the binding result in assay [1] is “no binding (tested: 1 µM)”.

B2: scrambled-Cy5 probe (peptide)
peptide: GFTQPETGTDNDLWSVDNEK
modifications: not fully specified (N-terminus)
notes: Same uncertainty about the added N-terminal glycine as for SBK2-Cy5; also called scrambled probe; scrambled version of the PTPµ probe
Regarding B2, in assay [2], the binding result is “no binding”.

The values are drawn from patent US20130287702A1 (CASE WESTERN RESERVE UNIVERSITY, published 2013).
